T1: recombinant endotheliase 1 (human), Q9UL52
T1 chain: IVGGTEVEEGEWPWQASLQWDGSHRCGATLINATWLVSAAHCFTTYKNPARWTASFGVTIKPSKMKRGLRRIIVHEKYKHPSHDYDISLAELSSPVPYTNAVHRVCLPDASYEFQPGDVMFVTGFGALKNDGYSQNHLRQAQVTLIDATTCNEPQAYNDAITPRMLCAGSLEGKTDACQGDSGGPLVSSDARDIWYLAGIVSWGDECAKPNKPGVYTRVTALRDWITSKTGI


Experiments:
[1] = biological target: T1, recombinant endotheliase 1 (human), …; test: cell-based or functional assay
[2] = biological target: T1, recombinant endotheliase 1 (human), …; test: inhibition of ET1 activity

| ET1 IC50 [1] | Ki [2] | Binder |
| --- | --- | --- |
| 350 nM | – | AGNYMCKGYWPDCKMTGT (modifications not checked) [DX-1133] |
| 47 nM | 100 to 1000 nM | AGWPTCRGFWPDCGMMGT (modifications not checked) [DX-1135] |
| 770 nM | 100 to 1000 nM | AGVQHCESRDLPCLIKGT (modifications not checked) [DX-1051] |

Source: patent US20050164945A1, “Endotheliase-1 ligands” (priority 2003, published 2005)
